Here are results for one molecule from patent US20050272635A1 (published 2005).

In the assay the target is T1, glycoprotein hormone beta 5 (GPHB5) (human, UniProt Q86YW7 25-130, one N-linked glycosylation (position not given)).
T1 construct: Secreted from the CHO 180 cell line co-expressing GPHA2 and GPHB5; also called beta subunit of CGH
T1 sequence: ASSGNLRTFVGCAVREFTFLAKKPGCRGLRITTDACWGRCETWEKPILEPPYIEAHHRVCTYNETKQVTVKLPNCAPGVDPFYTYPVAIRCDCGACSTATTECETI
The experiment in a line: co-expression in CHO cells; secreted heterodimer.

B1: glycoprotein hormone alpha2 (GPHA2) (ligand)
chain: QEAVIPGCHLHPFNVTVRSDRQGTCQGSHVAQACVGHCESSAFPSRYSVLVASGYRHNITSVSQCCTISGLKKVKVQLQCVGSRREELEIFTARACQCDMCRLSRY
modifications: two N-linked glycosylations (positions not given)
notes: Secreted from the CHO 180 cell line co-expressing GPHA2 and GPHB5; also called Zsig51; alpha subunit of CGH
In the case of B1, the binding result is reported as “binds”.
